From patent publication US20020123082A1 (NEW YORK UNIVERSITY, published 2002) come the findings set out here.

For one test, the target named is human Cul2 (endogenous) (human, UniProt Q13617 1-745, limits assumed). The test is described as follows: anti-Flag co-immunoprecipitation from transfected HeLa cells, anti-Cul2 immunoblot. An excerpt: HeLa cells were transfected with mammalian expression plasmids encoding Flag-tagged versions of FBP1 (lane 1), (ΔF)FBP1 (lane 2), FBP4 (lane 3), FBP7 (lane 5), FBP2 (lane 7), (ΔF)FBP2 (lane 8), FBP3a (lane 9), (ΔF)FBP3a (lane 10), or with an empty vector (lanes 4 and 6). Cells were lysed and extracts were subjected to immunoprecipitation with a rabbit anti-Flag antibody (lanes 1-8). Immunoprecipitates were then immunoblotted with a mouse anti-Cul1 monoclonal antibody, a rabbit anti-Skp1 polyclonal antibody or a rabbit anti-Cul2 polyclonal antibody, as indicated. The last lane contains 25 μg of extracts from non-transfected HeLa cells; […] contains recombinant Cul1, Skp1, or Cul2 proteins used as markers.
In general terms: A western blot detects proteins with antibodies after separation by electrophoresis.

Another test has as its target His-tagged Elongin C (human, UniProt Q15369 1-112). Nature of the test: pull-down of in vitro translated 35S-FBP on His-Elongin C Nickel-agarose beads. The protocol: FIG. 29. FBPs interact specifically with Skp1 through their F-box. The cDNAs of FBPs (wild type and mutants) were transcribed and translated in vitro (IVT) in the presence of 35S- methionine. […] Bound IVT proteins were analyzed by SDS-PAGE and autoradiography. The arrows on the left side of the panels point to the indicated FBPs. The apparent molecular weights of the protein standards are indicated on the right side of the panels.
As examples of the human FBP family, a more detailed characterization of some FBPs was performed. To confirm the specificity of interaction between the novel FBPs and human Skp1, eight in vitro translated FBPs were tested for binding to His-tagged-Skp1 pre-bound to Nickel-agarose beads. As a control Elongin C was used, the only known human Skp1 homolog.

Sequence of His-tagged Elongin C (Q15369 whole entry): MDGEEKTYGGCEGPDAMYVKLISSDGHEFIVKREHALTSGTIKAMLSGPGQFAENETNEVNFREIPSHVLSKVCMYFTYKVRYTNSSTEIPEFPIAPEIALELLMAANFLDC
Sequence of human Cul2 (endogenous) (Q13617 whole entry): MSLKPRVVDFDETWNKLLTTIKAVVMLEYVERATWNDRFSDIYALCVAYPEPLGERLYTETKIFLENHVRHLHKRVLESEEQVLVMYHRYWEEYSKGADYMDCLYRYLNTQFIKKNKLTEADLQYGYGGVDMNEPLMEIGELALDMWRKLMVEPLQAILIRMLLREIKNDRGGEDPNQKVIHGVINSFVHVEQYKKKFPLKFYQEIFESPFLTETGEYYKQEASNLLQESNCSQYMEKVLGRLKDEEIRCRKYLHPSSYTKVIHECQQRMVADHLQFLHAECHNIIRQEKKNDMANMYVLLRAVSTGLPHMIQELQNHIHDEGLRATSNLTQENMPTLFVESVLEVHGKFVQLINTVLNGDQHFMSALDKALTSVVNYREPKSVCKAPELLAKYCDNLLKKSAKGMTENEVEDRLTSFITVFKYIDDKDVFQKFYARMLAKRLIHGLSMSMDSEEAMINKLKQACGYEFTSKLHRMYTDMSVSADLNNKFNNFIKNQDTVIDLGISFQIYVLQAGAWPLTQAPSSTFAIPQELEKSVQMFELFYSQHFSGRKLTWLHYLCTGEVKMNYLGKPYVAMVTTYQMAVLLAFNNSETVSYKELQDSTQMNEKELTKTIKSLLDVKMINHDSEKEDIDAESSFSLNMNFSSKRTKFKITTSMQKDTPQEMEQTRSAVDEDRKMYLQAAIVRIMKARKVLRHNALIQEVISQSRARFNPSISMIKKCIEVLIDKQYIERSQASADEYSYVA

B1: Flag-tagged FBP4 (other, not shown: small tags and cut ends)
chain: MAGSEPRSGTNSPPPPFSDWGRLEAAILSGWKTFWQSVSKDRVARTTSREEVDEAASTLTRLPIDVQLYILSFLSPHDLCQLGSTNHYWNETVRNPILWRYFLLRDLPSWSSVDWKSLPYLQILKKPISEVSDGAFFDYMAVYLMCCPYTRRASKSSRPMYGAVTSFLHSLIIPNEPRFALFGPRLEQLNTSLVLSLLSSEELCPTAGLPQRQIDGIGSGVNFQLNNQHKFNILILYSTTRKERDRAREEHTSAVNKMFSRHNEGDDRPGSRYSVIPQIQKLCEVVDGFIYVANAEAHKRHEWQDEFSHIMAMTDPAFGSSGRPLLVLSCISQGDVKRMPCFYLAHELHLNLLNHPWLVQDTEAETLTGFLNGIEWILEEVESKRAR
notes: pcDNA3 construct, Flag tag at the C-terminus
B1: the binding result with human Cul2 (endogenous) is on record as “no binding”.

B2: human F-box protein FBP1 (other)
chain: MDPAEAVLQEKALKFMNSSEREDCNNGEPPRKIIPEKNSLRQTYNSCARLCLNQETVCLASTAMKTENCVAKTKLANGTSSMIVPKQRKLSASYEKEKELCVKYFEQWSESDQVEFVEHLISQMCHYQHGHINSYLKPMLQRDFITALPARGLDHIAENILSYLDAKSLCAAELVCKEWYRVTSDGMLWKKLIERMVRTDSLWRGLAERRGWGQYLFKNKPPDGNAPPNSFYRALYPKIIQDIETIESNWRCGRHSLQRIHCRSETSKGVYCLQYDDQKIVSGLRDNTIKIWDKNTLECKRILTGHTGSVLCLQYDERVIITGSSDSTVRVWDVNTGEMLNTLIHHCEAVLHLRFNNGMMVTCSKDRSIAVWDMASPTDITLRRVLVGHRAAVNVVDFDDKYIVSASGDRTIKVWNTSTCEFVRTLNGHKRGIACLQYRDRLVVSGSSDNTIRLWDIECGACLRVLEGHEELVRCIRFDNKRIVSGAYDGKIKVWDLVAALDPRAPAGTLCLRTLVEHSGRVFRLQFDEFQIVSSSHDDTILIWDFLNDPAAQAEPPRSPSRTYTYISR
On to B2, for which the binding result with His-tagged Elongin C is recorded as “no binding”.

B3: Flag-tagged FBP1 (other, not shown: small tags and cut ends)
chain: MDPAEAVLQEKALKFMNSSEREDCNNGEPPRKIIPEKNSLRQTYNSCARLCLNQETVCLASTAMKTENCVAKTKLANGTSSMIVPKQRKLSASYEKEKELCVKYFEQWSESDQVEFVEHLISQMCHYQHGHINSYLKPMLQRDFITALPARGLDHIAENILSYLDAKSLCAAELVCKEWYRVTSDGMLWKKLIERMVRTDSLWRGLAERRGWGQYLFKNKPPDGNAPPNSFYRALYPKIIQDIETIESNWRCGRHSLQRIHCRSETSKGVYCLQYDDQKIVSGLRDNTIKIWDKNTLECKRILTGHTGSVLCLQYDERVIITGSSDSTVRVWDVNTGEMLNTLIHHCEAVLHLRFNNGMMVTCSKDRSIAVWDMASPTDITLRRVLVGHRAAVNVVDFDDKYIVSASGDRTIKVWNTSTCEFVRTLNGHKRGIACLQYRDRLVVSGSSDNTIRLWDIECGACLRVLEGHEELVRCIRFDNKRIVSGAYDGKIKVWDLVAALDPRAPAGTLCLRTLVEHSGRVFRLQFDEFQIVSSSHDDTILIWDFLNDPAAQAEPPRSPSRTYTYISR
notes: Flag tag at the C-terminus in the pcDNA3 constructs (HeLa, 293 cells); also called Flag-FBP1
For B3, the binding result in the test with human Cul2 (endogenous) was “no binding”.

B4: Flag-tagged FBP3a (other, not shown: small tags and cut ends)
chain: MKRGGRDSDRNSSEEGTAEKSKKLRTTNEHSQTCDWGNLLQDIILQVFKYLPLLDRAHASQVCRNWNQVFHMPDLWRCFEFELNQPATSYLKATHPELIKQIIKRHSNHLQYVSFKVDSSKESAEAACDILSQLVNCSLKTLGLISTARPSFMDLPKSHFISALTVVFVNSKSLSSLKIDDTPVDDPSLKVLVANNSDTLKLLKMSSCPHVSPAGILCVADQCHGLRELALNYHLLSDELLLALSSEKHVRLEHLRIDVVSENPGQTHFHTIQKSSWDAFIRHSPKVNLVMYFFLYEEEFDPFFRYEIPATHLYFGRSVSKDVLGRVGMTCPRLVELVVCANGLRPLDEELIRIAERCKNLSAIGLGECEVSCSAFVEFVKMCGGRLSQLSIMEEVLIPDQKYSLEQIHWEVSKHLGRVWFPDMMPTW
notes: as for B1
As to B4, in the test with human Cul2 (endogenous), the binding result is recorded as “no binding”.

B5: human F-box protein FBP3a (other)
chain: MKRGGRDSDRNSSEEGTAEKSKKLRTTNEHSQTCDWGNLLQDIILQVFKYLPLLDRAHASQVCRNWNQVFHMPDLWRCFEFELNQPATSYLKATHPELIKQIIKRHSNHLQYVSFKVDSSKESAEAACDILSQLVNCSLKTLGLISTARPSFMDLPKSHFISALTVVFVNSKSLSSLKIDDTPVDDPSLKVLVANNSDTLKLLKMSSCPHVSPAGILCVADQCHGLRELALNYHLLSDELLLALSSEKHVRLEHLRIDVVSENPGQTHFHTIQKSSWDAFIRHSPKVNLVMYFFLYEEEFDPFFRYEIPATHLYFGRSVSKDVLGRVGMTCPRLVELVVCANGLRPLDEELIRIAERCKNLSAIGLGECEVSCSAFVEFVKMCGGRLSQLSIMEEVLIPDQKYSLEQIHWEVSKHLGRVWFPDMMPTW
Regarding B5, the binding result with His-tagged Elongin C is reported as “no binding”.

B6: human F-box protein FBP5 (other)
chain: MSRRPCSCALRPPRCSCSASPSAVTAAGRPRPSDSCKEESSTLSVKMKCDFNCNHVHSGLKLVKPDDIGRLVSYTPAYLEGSCKDCIKDYERLSCIGSPIVSPRIVQLETESKRLHNKENQHVQQTLNSTNEIEALETSRLYEDSGYSSFSLQSGLSEHEEGSLLEENFGDSLQSCLLQIQSPDQYPNKNLLPVLHFEKVVCSTLKKNAKRNPKVDREMLKEIIARGNFRLQNIIGRKMGLECVDILSELFRRGLRHVLATILAQLSDMDLINVSKVSTTWKKILEDDKGAFQLYSKAIQRVTENNNKFSPHASTREYVMFRTPLASVQKSAAQTSLKKDAQTKLSNQGDQKGSTYSRHNEFSEVAKTLKKNESLKACIRCNSPAKYDCYLQRATCKREGCGFDYCTKCLCNYHTTKDCSDGKLLKASCKIGPLPGTKKSKKNLRRL
notes: Gal4 AD fusion in the two-hybrid screen; the clone appeared to be full length
For the molecule B6, the binding result with His-tagged Elongin C is “no binding”.

B7: Flag-tagged FBP2 (other, not shown: small tags and cut ends)
chain: MERKDFETWLDNISVTFLSLTDLQKNETLDHLISLSGAVQLRHLSNNLETLLKRDFLKLLPLELSFYLLKWLDPQTLLTCCLVSKQWNKVISACTEVWQTACKNLGWQIDDSVQDALHWKKVYLKAILRMKQLEDHEAFETSSLIGHSARVYALYYKDGLLCTGSDDLSAKLWDVSTGQCVYGIQTHTCAAVKFDEQKLVTGSFDNTVACWEWSSGARTQHFRGHTGAVFSVDYNDELDILVSGSADFTVKVWALSAGTCLNTLTGHTEWVTKVVLQKCKVKSLLHSPGDYILLSADKYEIKIWPIGREINCKCLKTLSVSEDRSICLQPRLHFDGKYIVCSSALGLYQWDFASYDILRVIKTPEIANLALLGFGDIFALLFDNRYLYIMDLRTESLISRWPLPEYRESKRGSSFLAGEHPG
notes: as for B1
Turning to B7, the binding result with human Cul2 (endogenous) is given as “no binding”.

B8: human F-box protein FBP2 (other)
chain: MERKDFETWLDNISVTFLSLTDLQKNETLDHLISLSGAVQLRHLSNNLETLLKRDFLKLLPLELSFYLLKWLDPQTLLTCCLVSKQWNKVISACTEVWQTACKNLGWQIDDSVQDALHWKKVYLKAILRMKQLEDHEAFETSSLIGHSARVYALYYKDGLLCTGSDDLSAKLWDVSTGQCVYGIQTHTCAAVKFDEQKLVTGSFDNTVACWEWSSGARTQHFRGHTGAVFSVDYNDELDILVSGSADFTVKVWALSAGTCLNTLTGHTEWVTKVVLQKCKVKSLLHSPGDYILLSADKYEIKIWPIGREINCKCLKTLSVSEDRSICLQPRLHFDGKYIVCSSALGLYQWDFASYDILRVIKTPEIANLALLGFGDIFALLFDNRYLYIMDLRTESLISRWPLPEYRESKRGSSFLAGEHPG
Take B8: the binding result with His-tagged Elongin C was “no binding”.
